IntAct's records for PubMed 36931259

B1: Kinesin light chain 3 (Homo sapiens), Q6P597 (parent)
chain: MSVQVAAPGSAGLGPERLSPEELVRQTRQVVQGLEALRAEHHGLAGHLAEALAGQGPAAGLEMLEEKQQVVSHSLEAIELGLGEAQVLLALSAHVGALEAEKQRLRSQARRLAQENVWLREELEETQRRLRASEESVAQLEEEKRHLEFLGQLRQYDPPAESQQSESPPRRDSLASLFPSEEEERKGPEAAGAAAAQQGGYEIPARLRTLHNLVIQYAGQGRYEVAVPLCRQALEDLERSSGHCHPDVATMLNILALVYRDQNKYKEATDLLHDALQIREQTLGPEHPAVAATLNNLAVLYGKRGRYREAEPLCQRALEIREKVLGADHPDVAKQLNNLALLCQNQGKFEDVERHYARALSIYEALGGPHDPNVAKTKNNLASAYLKQNKYQQAEELYKEILHKEDLPAPLGAPNTGTAGDAEQALRRSSSLSKIRESIRRGSEKLVSRLRGEAAAGAAGMKRAMSLNTLNVDAPRAPGTQFPSWHLDKAPRTLSASTQDLSPH
partner: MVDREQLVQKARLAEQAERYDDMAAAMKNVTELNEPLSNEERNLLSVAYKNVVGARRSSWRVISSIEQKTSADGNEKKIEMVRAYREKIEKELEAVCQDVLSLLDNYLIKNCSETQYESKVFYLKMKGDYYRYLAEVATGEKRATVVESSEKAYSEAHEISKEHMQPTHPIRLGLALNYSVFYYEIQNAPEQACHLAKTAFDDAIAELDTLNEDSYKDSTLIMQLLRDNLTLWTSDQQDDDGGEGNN
B2: 14-3-3 protein sigma (Homo sapiens), P31947 (parent)
chain: MERASLIQKAKLAEQAERYEDMAAFMKGAVEKGEELSCEERNLLSVAYKNVVGGQRAAWRVLSSIEQKSNEEGSEEKGPEVREYREKVETELQGVCDTVLGLLDSHLIKEAGDAESRVFYLKMKGDYYRYLAEVATGDDKKRIIDSARSAYQEAMDISKKEMPPTNPIRLGLALNFSVFHYEIANSPEEAISLAKTTFDEAMADLHTLSEDSYKDSTLIMQLLRDNLTLWTADNAGEEGGEAPQEPQS
partner: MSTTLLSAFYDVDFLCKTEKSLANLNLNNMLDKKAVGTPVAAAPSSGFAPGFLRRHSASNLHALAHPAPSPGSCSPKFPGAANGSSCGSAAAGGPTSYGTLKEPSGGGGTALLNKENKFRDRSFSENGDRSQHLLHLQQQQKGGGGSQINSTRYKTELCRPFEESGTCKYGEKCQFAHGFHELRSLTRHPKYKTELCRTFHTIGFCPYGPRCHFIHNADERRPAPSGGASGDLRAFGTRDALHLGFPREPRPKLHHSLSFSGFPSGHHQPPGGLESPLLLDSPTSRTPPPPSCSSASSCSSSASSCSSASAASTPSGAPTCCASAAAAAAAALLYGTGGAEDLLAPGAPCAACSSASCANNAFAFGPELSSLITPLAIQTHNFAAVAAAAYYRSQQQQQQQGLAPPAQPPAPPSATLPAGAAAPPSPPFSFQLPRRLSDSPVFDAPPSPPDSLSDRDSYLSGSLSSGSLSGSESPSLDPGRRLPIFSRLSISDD
B3: 14-3-3 protein sigma (Homo sapiens), P31947 (parent)
chain: B2 chain
partner: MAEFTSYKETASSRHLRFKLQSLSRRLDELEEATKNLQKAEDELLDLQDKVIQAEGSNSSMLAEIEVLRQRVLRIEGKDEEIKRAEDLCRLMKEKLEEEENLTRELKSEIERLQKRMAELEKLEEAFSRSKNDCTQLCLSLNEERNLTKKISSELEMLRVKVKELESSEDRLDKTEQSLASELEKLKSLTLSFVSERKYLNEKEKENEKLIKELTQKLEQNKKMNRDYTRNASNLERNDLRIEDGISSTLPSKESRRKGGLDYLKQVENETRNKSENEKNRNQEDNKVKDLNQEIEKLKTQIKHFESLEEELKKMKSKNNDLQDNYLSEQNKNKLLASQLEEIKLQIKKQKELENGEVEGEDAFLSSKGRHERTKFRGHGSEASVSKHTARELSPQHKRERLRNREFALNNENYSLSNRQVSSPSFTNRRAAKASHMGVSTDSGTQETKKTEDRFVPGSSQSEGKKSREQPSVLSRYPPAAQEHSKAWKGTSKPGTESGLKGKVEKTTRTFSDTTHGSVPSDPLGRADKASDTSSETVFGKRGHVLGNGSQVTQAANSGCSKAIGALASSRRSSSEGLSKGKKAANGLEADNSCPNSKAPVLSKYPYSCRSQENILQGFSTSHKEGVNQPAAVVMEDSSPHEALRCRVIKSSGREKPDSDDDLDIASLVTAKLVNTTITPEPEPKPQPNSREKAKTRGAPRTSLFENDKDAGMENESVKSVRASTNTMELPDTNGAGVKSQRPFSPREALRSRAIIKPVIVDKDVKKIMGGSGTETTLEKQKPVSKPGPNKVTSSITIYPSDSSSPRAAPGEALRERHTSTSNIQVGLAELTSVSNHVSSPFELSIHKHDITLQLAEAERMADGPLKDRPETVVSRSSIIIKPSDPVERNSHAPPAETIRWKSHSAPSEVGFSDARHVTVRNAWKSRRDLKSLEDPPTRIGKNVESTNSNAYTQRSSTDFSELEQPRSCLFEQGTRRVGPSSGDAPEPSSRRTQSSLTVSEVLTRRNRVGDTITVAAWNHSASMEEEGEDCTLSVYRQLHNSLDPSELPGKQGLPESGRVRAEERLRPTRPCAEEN
B4: 14-3-3 protein sigma (Homo sapiens), P31947 (parent)
chain: B2 chain
partner: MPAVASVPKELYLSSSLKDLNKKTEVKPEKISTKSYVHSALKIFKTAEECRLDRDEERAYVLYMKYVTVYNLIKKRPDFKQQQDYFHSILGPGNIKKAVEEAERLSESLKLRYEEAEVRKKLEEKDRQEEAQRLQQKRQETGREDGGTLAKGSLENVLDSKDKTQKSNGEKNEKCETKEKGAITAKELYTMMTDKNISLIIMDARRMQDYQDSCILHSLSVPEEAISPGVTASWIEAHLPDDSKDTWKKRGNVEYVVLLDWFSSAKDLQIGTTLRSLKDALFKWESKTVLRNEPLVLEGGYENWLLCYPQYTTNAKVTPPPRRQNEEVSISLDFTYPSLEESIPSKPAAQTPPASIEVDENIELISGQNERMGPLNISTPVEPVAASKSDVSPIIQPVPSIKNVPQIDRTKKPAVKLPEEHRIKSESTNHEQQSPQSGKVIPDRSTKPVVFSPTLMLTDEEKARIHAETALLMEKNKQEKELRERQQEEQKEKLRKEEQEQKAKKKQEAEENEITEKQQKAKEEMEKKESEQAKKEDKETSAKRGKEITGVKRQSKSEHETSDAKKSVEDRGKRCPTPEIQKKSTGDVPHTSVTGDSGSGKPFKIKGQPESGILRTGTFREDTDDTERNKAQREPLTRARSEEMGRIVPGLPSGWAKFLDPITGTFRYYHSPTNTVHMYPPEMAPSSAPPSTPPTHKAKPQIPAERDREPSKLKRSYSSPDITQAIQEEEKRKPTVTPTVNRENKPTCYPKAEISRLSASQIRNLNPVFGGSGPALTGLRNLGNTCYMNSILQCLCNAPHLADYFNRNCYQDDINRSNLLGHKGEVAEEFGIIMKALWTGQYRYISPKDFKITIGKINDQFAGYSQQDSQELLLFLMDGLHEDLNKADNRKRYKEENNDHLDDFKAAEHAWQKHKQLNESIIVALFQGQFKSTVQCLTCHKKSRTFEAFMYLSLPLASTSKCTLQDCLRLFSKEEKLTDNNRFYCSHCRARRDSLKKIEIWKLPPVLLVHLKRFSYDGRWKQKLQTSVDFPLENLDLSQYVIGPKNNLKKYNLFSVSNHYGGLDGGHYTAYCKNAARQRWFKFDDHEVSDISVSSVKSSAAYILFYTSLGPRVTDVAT
B5: Serine/arginine-rich splicing factor 10 (Homo sapiens), O75494 (parent)
chain: MSRYLRPPNTSLFVRNVADDTRSEDLRREFGRYGPIVDVYVPLDFYTRRPRGFAYVQFEDVRDAEDALHNLDRKWICGRQIEIQFAQGDRKTPNQMKAKEGRNVYSSSRYDDYDRYRRSRSRSYERRRSRSRSFDYNYRRSYSPRNSRPTGRPRRSRSHSDNDRFKHRNRSFSRSKSNSRSRSKSQPKKEMKAKSRSRSASHTKTRGTSKTDSKTHYKSGSRYEKESRKKEPPRSKSQSRSQSRSRSKSRSRSWTSPKSSGH
partner: B1 partner
B6: 14-3-3 protein sigma (Homo sapiens), P31947 (parent)
chain: B2 chain
partner: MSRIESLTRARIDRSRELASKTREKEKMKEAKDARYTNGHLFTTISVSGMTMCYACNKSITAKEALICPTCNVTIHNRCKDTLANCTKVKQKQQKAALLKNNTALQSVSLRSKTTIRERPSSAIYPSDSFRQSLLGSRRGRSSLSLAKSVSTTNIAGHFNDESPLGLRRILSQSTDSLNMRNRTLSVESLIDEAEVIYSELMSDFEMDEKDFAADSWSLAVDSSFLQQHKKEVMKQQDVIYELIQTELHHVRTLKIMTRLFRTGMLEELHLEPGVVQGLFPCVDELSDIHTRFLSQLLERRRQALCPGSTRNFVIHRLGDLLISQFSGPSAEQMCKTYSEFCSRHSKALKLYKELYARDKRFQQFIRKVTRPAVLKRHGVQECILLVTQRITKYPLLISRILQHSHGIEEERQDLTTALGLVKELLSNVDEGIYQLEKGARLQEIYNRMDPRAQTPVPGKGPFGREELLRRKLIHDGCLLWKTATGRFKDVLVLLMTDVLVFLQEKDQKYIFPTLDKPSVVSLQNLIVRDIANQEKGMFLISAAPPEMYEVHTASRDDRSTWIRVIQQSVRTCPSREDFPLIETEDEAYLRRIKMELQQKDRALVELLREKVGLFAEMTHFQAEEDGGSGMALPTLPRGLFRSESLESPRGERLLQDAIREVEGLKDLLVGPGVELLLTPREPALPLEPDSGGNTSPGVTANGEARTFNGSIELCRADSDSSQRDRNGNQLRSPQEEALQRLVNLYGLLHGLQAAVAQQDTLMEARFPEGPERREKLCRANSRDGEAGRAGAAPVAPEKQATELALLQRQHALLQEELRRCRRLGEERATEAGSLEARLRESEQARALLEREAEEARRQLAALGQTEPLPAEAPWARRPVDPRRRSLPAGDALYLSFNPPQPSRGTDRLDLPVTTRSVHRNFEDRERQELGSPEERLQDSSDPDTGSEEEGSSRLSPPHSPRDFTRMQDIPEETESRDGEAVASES

Variants of: B1
Details: with 1433g_human YWHAG

effect of a mutation on the interaction | Variant
disrupting interaction strength | S431A;S466A;S497A

Variants of: B2
Details: with tisd_human ZFP36L2, P47974

effect of a mutation on the interaction | Variant
decreasing interaction strength | K49E;R56E;V178D

Variants of: B3
Details: with luzp1_human LUZP1, Q86V48

effect of a mutation on the interaction | Variant
decreasing interaction strength | K49E;R56E;V178D

Variants of: B4
Details: with ubp8_human USP8, P40818

effect of a mutation on the interaction | Variant
decreasing interaction strength | K49E;R56E;V178D

Variants of: B5
Details: with 1433g_human YWHAG

effect of a mutation on the interaction | Variant
disrupting interaction strength | S121A;S123A;S131A;S133A;S143A;S158A;S160A;S199A;S201A;S249A;S253A;T255A

Variants of: B6
Details: with arhg2_human ARHGEF2, Q92974

effect of a mutation on the interaction | Variant
decreasing interaction strength | K49E;R56E;V178D
